Article PMC6140332

Molecular target: T1, ERG (33-479) R367K (UniProt P11308 33-479, R367K)
T1 sequence: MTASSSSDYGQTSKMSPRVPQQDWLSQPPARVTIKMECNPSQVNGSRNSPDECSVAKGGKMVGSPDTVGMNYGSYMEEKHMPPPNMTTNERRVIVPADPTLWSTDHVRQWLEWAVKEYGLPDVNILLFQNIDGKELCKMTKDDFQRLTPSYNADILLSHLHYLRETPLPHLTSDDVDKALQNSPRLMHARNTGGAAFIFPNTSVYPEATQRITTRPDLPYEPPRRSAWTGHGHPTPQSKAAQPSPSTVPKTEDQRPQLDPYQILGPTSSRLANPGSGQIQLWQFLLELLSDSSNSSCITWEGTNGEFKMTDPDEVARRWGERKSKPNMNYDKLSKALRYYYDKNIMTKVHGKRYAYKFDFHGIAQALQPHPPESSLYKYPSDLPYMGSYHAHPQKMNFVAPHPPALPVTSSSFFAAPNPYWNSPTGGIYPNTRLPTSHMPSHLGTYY
Experiment: EMSA

B1: IRD800-Py (polyomavirus enhancer probe) (dsDNA)
DNA 1: GATCTTTAAGCAGGAAGTGACTAACTGACCGCAGGTGGATC
DNA 2: GATCCACCTGCGGTCAGTTAGTCACTTCCTGCTTAAAGATC
- binding result: no binding
